Laboratory results reported in the supplement of paper PMC10567573.

B1: INTS4 (parent)
chain: YSSGEFSSGRKWGDDAPKEEVDTG
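Also: lentivirally expressed fusions sorted by FACS into six bins by GFP to DsRed ratio, PSI derived from sequencing read proportions per bin multiplied by bin number.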

Variants of: B1
Assay: protein stability index of a GFP-peptide fusion (GPS, HEK-293T) (PSI 1-6); higher = more stable
Conditions: c terminus: a fixed tail appended
In the case of YSSGEFSSGKKWGDDAPKEEVDTG [R10K], the protein stability index is reported as 2.81. Work on YSSGEFSSGLKWGDDAPKEEVDTG [R10L] yielded a protein stability index of 2. With YSSGEFSSGMKWGDDAPKEEVDTG [R10M] the protein stability index was 1.52. In the case of YSSGEFSSGNKWGDDAPKEEVDTG [R10N], the protein stability index is reported as 2.63. YSSGEFSSGPKWGDDAPKEEVDTG [R10P] gave a protein stability index of 2.3. For YSSGEFSSGQKWGDDAPKEEVDTG [R10Q], the protein stability index was 1.98. In the case of YSSGEFSSGSKWGDDAPKEEVDTG [R10S], the protein stability index is reported as 3.19. In the case of YSSGEFSSGTKWGDDAPKEEVDTG [R10T], the protein stability index is reported as 2.8. Work on YSSGEFSSGVKWGDDAPKEEVDTG [R10V] yielded a protein stability index of 2.5. Variant YSSGEFSSGWKWGDDAPKEEVDTG [R10W] has a protein stability index of 1.65. For YSSGEFSSGYKWGDDAPKEEVDTG [R10Y], the protein stability index was 2.41. With YSSGEFSSGRAWGDDAPKEEVDTG [K11A] the protein stability index was 2.7. Variant YSSGEFSSGRCWGDDAPKEEVDTG [K11C] has a protein stability index of 1.93. Variant YSSGEFSSGRDWGDDAPKEEVDTG [K11D] has a protein stability index of 2.73. Work on YSSGEFSSGREWGDDAPKEEVDTG [K11E] yielded a protein stability index of 3.25. Variant YSSGEFSSGRFWGDDAPKEEVDTG [K11F] has a protein stability index of 1.9. YSSGEFSSGRGWGDDAPKEEVDTG [K11G] showed a protein stability index of 2.98. YSSGEFSSGRHWGDDAPKEEVDTG [K11H] gave a protein stability index of 2.45. Variant YSSGEFSSGRIWGDDAPKEEVDTG [K11I] has a protein stability index of 1.78. For YSSGEFSSGRLWGDDAPKEEVDTG [K11L], the protein stability index was 1.91. With YSSGEFSSGRMWGDDAPKEEVDTG [K11M] the protein stability index was 2.62. With YSSGEFSSGRNWGDDAPKEEVDTG [K11N] the protein stability index was 3.21. Work on YSSGEFSSGRPWGDDAPKEEVDTG [K11P] yielded a protein stability index of 2.08. Variant YSSGEFSSGRQWGDDAPKEEVDTG [K11Q] has a protein stability index of 2.83. Variant YSSGEFSSGRRWGDDAPKEEVDTG [K11R] has a protein stability index of 1.97. For YSSGEFSSGRSWGDDAPKEEVDTG [K11S], the protein stability index was 3.02. With YSSGEFSSGRTWGDDAPKEEVDTG [K11T] the protein stability index was 2.31. Work on YSSGEFSSGRVWGDDAPKEEVDTG [K11V] yielded a protein stability index of 2.39. For YSSGEFSSGRWWGDDAPKEEVDTG [K11W], the protein stability index was 1.94. Variant YSSGEFSSGRYWGDDAPKEEVDTG [K11Y] has a protein stability index of 3.31. In the case of YSSGEFSSGRKAGDDAPKEEVDTG [W12A], the protein stability index is reported as 3.22. YSSGEFSSGRKCGDDAPKEEVDTG [W12C] gave a protein stability index of 2.7. Work on YSSGEFSSGRKDGDDAPKEEVDTG [W12D] yielded a protein stability index of 3.21. For YSSGEFSSGRKEGDDAPKEEVDTG [W12E], the protein stability index was 3.84. YSSGEFSSGRKFGDDAPKEEVDTG [W12F] showed a protein stability index of 2.96. With YSSGEFSSGRKGGDDAPKEEVDTG [W12G] the protein stability index was 3.11. In the case of YSSGEFSSGRKHGDDAPKEEVDTG [W12H], the protein stability index is reported as 3.29. In the case of YSSGEFSSGRKIGDDAPKEEVDTG [W12I], the protein stability index is reported as 3.2. Variant YSSGEFSSGRKKGDDAPKEEVDTG [W12K] has a protein stability index of 2.94. With YSSGEFSSGRKLGDDAPKEEVDTG [W12L] the protein stability index was 3.24. Work on YSSGEFSSGRKMGDDAPKEEVDTG [W12M] yielded a protein stability index of 2.85. With YSSGEFSSGRKNGDDAPKEEVDTG [W12N] the protein stability index was 3.3. In the case of YSSGEFSSGRKPGDDAPKEEVDTG [W12P], the protein stability index is reported as 2.92. Work on YSSGEFSSGRKQGDDAPKEEVDTG [W12Q] yielded a protein stability index of 3.17. Variant YSSGEFSSGRKRGDDAPKEEVDTG [W12R] has a protein stability index of 2.86. YSSGEFSSGRKSGDDAPKEEVDTG [W12S] gave a protein stability index of 4.44. In the case of YSSGEFSSGRKTGDDAPKEEVDTG [W12T], the protein stability index is reported as 3.08. Variant YSSGEFSSGRKVGDDAPKEEVDTG [W12V] has a protein stability index of 3.08. In the case of YSSGEFSSGRKYGDDAPKEEVDTG [W12Y], the protein stability index is reported as 2.57. YSSGEFSSGRKWADDAPKEEVDTG [G13A] showed a protein stability index of 2.65. Variant YSSGEFSSGRKWCDDAPKEEVDTG [G13C] has a protein stability index of 2.65. With YSSGEFSSGRKWDDDAPKEEVDTG [G13D] the protein stability index was 2.5. Variant YSSGEFSSGRKWEDDAPKEEVDTG [G13E] has a protein stability index of 3.02. Work on YSSGEFSSGRKWFDDAPKEEVDTG [G13F] yielded a protein stability index of 2.65. Work on YSSGEFSSGRKWHDDAPKEEVDTG [G13H] yielded a protein stability index of 3.66. YSSGEFSSGRKWIDDAPKEEVDTG [G13I] gave a protein stability index of 2.48. In the case of YSSGEFSSGRKWKDDAPKEEVDTG [G13K], the protein stability index is reported as 2.5. For YSSGEFSSGRKWLDDAPKEEVDTG [G13L], the protein stability index was 2.35. Variant YSSGEFSSGRKWMDDAPKEEVDTG [G13M] has a protein stability index of 2.45. In the case of YSSGEFSSGRKWNDDAPKEEVDTG [G13N], the protein stability index is reported as 3.13. Variant YSSGEFSSGRKWPDDAPKEEVDTG [G13P] has a protein stability index of 2.6. For YSSGEFSSGRKWQDDAPKEEVDTG [G13Q], the protein stability index was 3.38. For YSSGEFSSGRKWRDDAPKEEVDTG [G13R], the protein stability index was 2.15. In the case of YSSGEFSSGRKWSDDAPKEEVDTG [G13S], the protein stability index is reported as 2.94. Work on YSSGEFSSGRKWTDDAPKEEVDTG [G13T] yielded a protein stability index of 2.5. YSSGEFSSGRKWVDDAPKEEVDTG [G13V] gave a protein stability index of 2.47. Work on YSSGEFSSGRKWWDDAPKEEVDTG [G13W] yielded a protein stability index of 2.44. YSSGEFSSGRKWYDDAPKEEVDTG [G13Y] gave a protein stability index of 2.81. YSSGEFSSGRKWGADAPKEEVDTG [D14A] showed a protein stability index of 2.54. In the case of YSSGEFSSGRKWGCDAPKEEVDTG [D14C], the protein stability index is reported as 1.79. YSSGEFSSGRKWGEDAPKEEVDTG [D14E] gave a protein stability index of 2.32. YSSGEFSSGRKWGFDAPKEEVDTG [D14F] showed a protein stability index of 2.59. Work on YSSGEFSSGRKWGGDAPKEEVDTG [D14G] yielded a protein stability index of 1.22. In the case of YSSGEFSSGRKWGHDAPKEEVDTG [D14H], the protein stability index is reported as 2.73. With YSSGEFSSGRKWGIDAPKEEVDTG [D14I] the protein stability index was 1.54. Variant YSSGEFSSGRKWGKDAPKEEVDTG [D14K] has a protein stability index of 1.71. Work on YSSGEFSSGRKWGLDAPKEEVDTG [D14L] yielded a protein stability index of 1.98. Variant YSSGEFSSGRKWGMDAPKEEVDTG [D14M] has a protein stability index of 1.94. YSSGEFSSGRKWGNDAPKEEVDTG [D14N] gave a protein stability index of 2.59. In the case of YSSGEFSSGRKWGPDAPKEEVDTG [D14P], the protein stability index is reported as 2.04. Work on YSSGEFSSGRKWGQDAPKEEVDTG [D14Q] yielded a protein stability index of 1.41. YSSGEFSSGRKWGRDAPKEEVDTG [D14R] showed a protein stability index of 2.02. For YSSGEFSSGRKWGSDAPKEEVDTG [D14S], the protein stability index was 2.19. Work on YSSGEFSSGRKWGTDAPKEEVDTG [D14T] yielded a protein stability index of 1.94. In the case of YSSGEFSSGRKWGVDAPKEEVDTG [D14V], the protein stability index is reported as 2.01. In the case of YSSGEFSSGRKWGWDAPKEEVDTG [D14W], the protein stability index is reported as 2.2. In the case of YSSGEFSSGRKWGYDAPKEEVDTG [D14Y], the protein stability index is reported as 2.48. Variant YSSGEFSSGRKWGDAAPKEEVDTG [D15A] has a protein stability index of 1.78. With YSSGEFSSGRKWGDCAPKEEVDTG [D15C] the protein stability index was 2.5. YSSGEFSSGRKWGDEAPKEEVDTG [D15E] showed a protein stability index of 3.12. YSSGEFSSGRKWGDFAPKEEVDTG [D15F] gave a protein stability index of 3.02. Variant YSSGEFSSGRKWGDGAPKEEVDTG [D15G] has a protein stability index of 2.07. Work on YSSGEFSSGRKWGDHAPKEEVDTG [D15H] yielded a protein stability index of 1.81. In the case of YSSGEFSSGRKWGDIAPKEEVDTG [D15I], the protein stability index is reported as 1.11.
